# According to patent publication US7163817:
# How the values were obtained:
# [1] = molecular target: FBD(4,5)-SK chimeric protein
# [2] = molecular target: FBD(4,5)-SK-FBD(4,5) chimeric protein
# [3] = molecular target: T1, Met-SK (recombinant SK purified from E. coli)
# T1 chain: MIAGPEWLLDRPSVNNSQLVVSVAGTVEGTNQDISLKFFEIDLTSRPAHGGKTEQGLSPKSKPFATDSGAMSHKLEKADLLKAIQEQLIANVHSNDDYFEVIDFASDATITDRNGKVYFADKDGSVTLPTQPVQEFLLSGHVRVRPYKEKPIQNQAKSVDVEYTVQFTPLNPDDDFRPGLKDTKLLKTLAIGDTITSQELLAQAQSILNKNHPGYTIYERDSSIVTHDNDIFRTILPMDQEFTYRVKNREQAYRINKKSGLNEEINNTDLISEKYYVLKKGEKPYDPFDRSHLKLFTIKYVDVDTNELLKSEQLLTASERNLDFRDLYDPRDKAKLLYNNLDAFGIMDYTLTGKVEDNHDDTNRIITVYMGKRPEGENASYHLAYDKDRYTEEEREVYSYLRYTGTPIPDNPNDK
# [4] = molecular target: T2, SK-FBD(1,2) chimeric protein
# T2 chain: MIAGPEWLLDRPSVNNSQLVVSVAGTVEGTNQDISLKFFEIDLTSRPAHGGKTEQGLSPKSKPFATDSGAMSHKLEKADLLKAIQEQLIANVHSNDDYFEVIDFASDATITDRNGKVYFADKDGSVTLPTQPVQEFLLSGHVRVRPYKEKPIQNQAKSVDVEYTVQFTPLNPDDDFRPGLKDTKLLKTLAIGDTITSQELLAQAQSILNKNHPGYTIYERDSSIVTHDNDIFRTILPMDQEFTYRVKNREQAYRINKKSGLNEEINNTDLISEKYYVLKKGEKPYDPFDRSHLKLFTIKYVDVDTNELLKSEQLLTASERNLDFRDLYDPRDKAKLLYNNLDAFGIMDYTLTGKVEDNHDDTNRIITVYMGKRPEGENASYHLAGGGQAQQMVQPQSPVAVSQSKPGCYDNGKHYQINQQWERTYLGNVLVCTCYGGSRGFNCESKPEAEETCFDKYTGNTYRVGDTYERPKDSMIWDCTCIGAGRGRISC
# [5] = molecular target: SK-FBD(4,5) chimeric protein, SK[residues 1-383]-(gly-gly-gly)-[FBD(4,5)]
# [6] = molecular target: T3, native SK from Streptococcus sp. (ATCC 12449)
# T3 chain: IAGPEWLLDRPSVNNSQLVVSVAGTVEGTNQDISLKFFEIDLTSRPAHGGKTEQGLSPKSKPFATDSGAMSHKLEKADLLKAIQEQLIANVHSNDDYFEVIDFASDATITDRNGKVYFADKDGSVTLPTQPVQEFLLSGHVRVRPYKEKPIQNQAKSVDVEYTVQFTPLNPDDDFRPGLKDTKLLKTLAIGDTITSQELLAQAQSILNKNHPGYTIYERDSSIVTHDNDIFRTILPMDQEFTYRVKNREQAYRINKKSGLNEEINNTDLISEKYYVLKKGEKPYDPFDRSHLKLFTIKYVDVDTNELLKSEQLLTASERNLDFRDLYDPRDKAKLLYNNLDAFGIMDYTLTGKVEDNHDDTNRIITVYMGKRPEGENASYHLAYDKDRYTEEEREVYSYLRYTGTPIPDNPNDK
protein,measurement,setting,value
human plasminogen (protein) EPLDDYVNTQGASLFSVTKKQLGAGSIEECAAKCEEDEEFTCRAFQYHSKEQQCVIMAENRKSSIIIRMRDVVLFEKKVYLSECKTGNGKNYRGTMSKTKNGITCQKWSSTSPHRPRFSPATHPSEGLEENYCRNPDNDPQGPWCYTTDPEKRYDYCDILECEEECMHCSGENYDGKISKTMSGLECQAWDSQSPHAHGYIPSKFPNKNLKKNYCRNPDRELRPWCFTTDPNKRWELCDIPRCTTPPPSSGPTYQCLKGTGENYRGNVAVTVSGHTCQHWSAQTPHTHNRTPENFPCKNLDENYCRNPDGKRAPWCHTTNSQVRWEYCKIPSCDSSPVSTEQLAPTAPPELTPVVQDCYHGDGQSYRGTSSTTTTGKKCQSWSSMTPHRHQKTPENYPNAGLTMNYCRNPDADKGPWCFTTDPSVRWEYCNLKKCSGTEASVVAPPPVVLLPDVETPSEEDCMFGNGKGYRGKRATTVTGTPCQDWAAQEPHRHSIFTPETNPRAGLEKNYCRNPDGDVGGPWCYTTNPRKLYDYCDVPQCAAPSFDCGKPQVEPKKCPGRVVGGCVAHPHSWPWQVSLRTRFGMHFCGGTLISPEWVLTAAHCLEKSPRPSSYKVILGAHQEVNLEPHVQEIEVSRLFLEPTRKDIALLKLSSPAVITDKVIPACLPSPNYVVADRTECFITGWGETQGTFGAGLLKEAQLPVIENKVCNRYEFLNGRVQSTELCAGHLAGGTDSCQGDSGGPLVCFEKDKYILQGVTSWGLGCARPNKPGVYVRVSRFVTWIEGVMRNN,"Kplg (Km for HPG), steady-state HPG activation, chromogenic one-stage assay, linear phase after the lag",[1],0.16 µM
same,"Kplg (Km for HPG), steady-state HPG activation, chromogenic one-stage assay, linear phase after the lag",[2],0.2 µM
same,"Kplg (Km for HPG), steady-state HPG activation, chromogenic one-stage assay",[3],0.18 µM
same,"Kplg (Km for HPG), steady-state HPG activation, chromogenic one-stage assay, linear phase after the lag",[4],0.18 µM
same,"Kplg (Km for HPG), steady-state HPG activation, chromogenic one-stage assay, linear phase after the lag",[5],0.15 µM
same,"Kplg (Km for HPG), steady-state HPG activation, chromogenic one-stage assay",[6],0.14 µM
